Data reported in article PMC5778463.

B1: vRNA promoter (5' nt 1-16 / 3' nt 1-18) (structured_RNA)
RNA 1: AGUAGUAACAAGAGGG
RNA 2: UAUACCUCUGCUUCUGCU
modifications: 5' phosphate on strand 1

Target: Influenza A polymerase heterotrimer (PA-PB1-PB2) (Influenza A virus A/little …, UniProt H6QM92;H6QM91;H6QM90 1-713;1-756;1-760)
Test: crystal structure

Binder | binding result
B1 | binds
AAUCUAUAAUAG (ssRNA, 5' m7Gppp cap) [capped 12-mer RNA primer] | binds
